Where a chain is given by its changes, count along the chain named.
What was measured:
[1] = target: T1, full-length human LAG3 on the cell surface (transfected CHO-S or Jurkat cells) (human, UniProt P18627 23-525); assay: flow cytometry on CHO-S cells expressing full-length human LAG3 [panel 6A]
T1 construct: whole, on cells; also called LAG3 on the cell membrane
T1 sequence (looked up): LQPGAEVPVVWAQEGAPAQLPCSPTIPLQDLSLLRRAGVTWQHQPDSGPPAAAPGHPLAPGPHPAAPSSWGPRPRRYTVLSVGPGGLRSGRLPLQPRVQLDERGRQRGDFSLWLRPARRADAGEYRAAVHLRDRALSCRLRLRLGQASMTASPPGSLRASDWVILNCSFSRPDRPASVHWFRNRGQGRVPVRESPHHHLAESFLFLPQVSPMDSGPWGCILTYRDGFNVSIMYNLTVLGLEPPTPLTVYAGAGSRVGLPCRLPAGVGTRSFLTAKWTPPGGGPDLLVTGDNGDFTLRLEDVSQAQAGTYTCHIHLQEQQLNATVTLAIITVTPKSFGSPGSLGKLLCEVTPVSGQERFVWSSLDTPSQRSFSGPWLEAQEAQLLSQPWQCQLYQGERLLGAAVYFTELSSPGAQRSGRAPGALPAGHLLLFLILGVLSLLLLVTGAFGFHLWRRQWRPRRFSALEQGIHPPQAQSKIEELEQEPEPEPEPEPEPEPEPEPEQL
Method: (§1) The binding of the humanized antibodies to LAG3 on the cell surface is determined by a flow cytometry method. The transfected CHO-S or Jurkat cells expressing the full-length human LAG3 gene are taken and washed twice with PBS (2% FBS), and the cell concentration is adjusted to 5×10⁵/100 μl. 1:3 gradient-diluted anti-LAG3 humanized antibody is added, and incubated at 4° C. for 30 min. […] The cells are centrifuged at 500×g for 5 min. The cells are washed twice with PBS (2% FBS). 1:300 diluted goat anti-human IgG Fab-FITC (Thermo Fisher) is added, and incubated at 4° C. for 30 min. The cells are washed twice with PBS (2% FBS). The cells are suspended in 200 μl PBS and analyzed by flow cytometry.

[2] = target: T2, LAG3-Fc recombinant protein (UniProt P18627 23-450); assay: ELISA on coated LAG3-Fc, anti-human kappa-HRP
T2 construct: also called LAG3-Fc (Acro); LAG3-Fc protein; not shown: Fc part
T2 sequence (looked up): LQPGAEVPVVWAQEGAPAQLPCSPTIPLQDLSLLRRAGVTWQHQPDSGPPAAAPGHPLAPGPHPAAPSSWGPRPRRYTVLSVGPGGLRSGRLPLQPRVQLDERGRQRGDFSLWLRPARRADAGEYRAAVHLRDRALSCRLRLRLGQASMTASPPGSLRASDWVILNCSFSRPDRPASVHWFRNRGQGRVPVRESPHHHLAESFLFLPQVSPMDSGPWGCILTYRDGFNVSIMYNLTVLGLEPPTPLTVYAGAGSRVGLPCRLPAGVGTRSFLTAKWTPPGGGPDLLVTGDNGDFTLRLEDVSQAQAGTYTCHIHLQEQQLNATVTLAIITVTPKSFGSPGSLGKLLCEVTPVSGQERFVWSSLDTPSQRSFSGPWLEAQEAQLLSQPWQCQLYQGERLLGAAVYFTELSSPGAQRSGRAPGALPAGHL
Method: The affinity of the humanized antibody for LAG3 is detected by an ELISA technique. […] The plate is washed 3 times with PBS containing 0.05% Tween 20 (PBST). The plate is blocked with PBS containing 5% skimmed milk for 1 hour at room temperature. […] The plate is washed 3 times with PBST, and 30 μl of 1:4000 diluted horseradish peroxidase-labeled goat anti-human IgG kappa light chain secondary antibody (Millipore) is added thereto, and the plate is allowed to stand at room temperature for 1 hour. The plate is washed 6 times with PBST, and TMB is added thereto for color development. The reaction is stopped with 2M H₂SO₄. The plate is read at 450 nm with a microplate reader.

[3] = target: T3, Recombinant mouse LAG3-Fc fusion protein (mouse, UniProt Q61790 24-442, limits assumed); assay: ELISA, plate coated with mouse LAG3-Fc
T3 construct: Bought; not shown: Fc part; not described
T3 sequence (looked up): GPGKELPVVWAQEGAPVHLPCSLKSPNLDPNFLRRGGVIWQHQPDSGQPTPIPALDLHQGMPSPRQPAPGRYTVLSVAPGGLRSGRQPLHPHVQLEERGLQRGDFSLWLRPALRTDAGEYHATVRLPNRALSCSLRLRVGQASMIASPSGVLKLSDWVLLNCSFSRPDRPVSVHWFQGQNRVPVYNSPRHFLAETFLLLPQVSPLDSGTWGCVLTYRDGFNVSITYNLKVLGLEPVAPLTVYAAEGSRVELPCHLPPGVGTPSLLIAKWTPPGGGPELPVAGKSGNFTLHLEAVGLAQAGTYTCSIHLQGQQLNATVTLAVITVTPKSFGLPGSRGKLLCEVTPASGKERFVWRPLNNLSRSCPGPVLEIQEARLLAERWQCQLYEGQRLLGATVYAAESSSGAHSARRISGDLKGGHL
Method: The plate is washed 3 times with PBS containing 0.05% Tween 20 (PBST). The plate is blocked with PBS containing 5% skimmed milk for 1 hour at room temperature. […] The plate is washed 3 times with PBST, and 30 μl of 1:2000 diluted horseradish peroxidase-labeled goat anti-human IgG kappa light chain secondary antibody (millipore) is added thereto, and the plate is allowed to stand at room temperature for 1 hour. The plate is washed 6 times with PBST, and TMB is added thereto for color development. The reaction is stopped with 2M H₂SO₄. The plate is read at 450 nm with a microplate reader.

[4] = target: T4, Recombinant cynomolgus monkey LAG3-Fc fusion protein (cynomolgus monkey); assay: SPR, cynomolgus monkey LAG3-Fc immobilized on the chip, antibody in flow, 1:1 Langmuir fit
T4 construct: Bought; also called cynomolgus monkey LAG3-Fc protein
Method: Surface plasmon resonance (SPR) is used to measure the binding affinity and kinetic constants of the anti-LAG3 humanized antibody for the cynomolgus monkey LAG3 protein. […] The data obtained from the experiments are analyzed using an evaluation software, and the curve is fitted with a 1:1 Langmuir binding model.

[5] = target: T1, full-length human LAG3 on the cell …; assay: flow cytometry on Jurkat cells expressing full-length human LAG3 [panel 6B]
Method: as §1

[6] = target: T2, LAG3-Fc recombinant protein; assay: SPR, LAG3-Fc immobilized on the chip, antibody in flow, 1:1 Langmuir fit
Method: Surface plasmon resonance (SPR) is used to measure the binding affinity and kinetic constants of the anti-LAG3 humanized antibody for the LAG3 protein. […] The data obtained from the experiments are analyzed using an evaluation software, and the curve is fitted with a 1:1 Langmuir binding model.

Tag1-LAG3 protein = target: T5, Tag1-LAG3 protein (UniProt P18627 23-450); assay: HTRF blocking assay (Cisbio kit): Tag1-LAG3 with Tag2-FGL1 and antibody
T5 construct: also called LAG3 (Cisbio kit)
Method: The mixture is reacted at room temperature for 15 minutes, and then 10 μL of pre-mixed anti-Tag1-Tb3+ and anti-Tag2-XL665 are added thereto.

[7] = target: T2, LAG3-Fc recombinant protein; assay: flow cytometry blocking assay: antibody premixed with LAG3-Fc (2 µg/ml), binding to MHC II on Raji cells
Method: Raji cells are washed twice with PBS (2% FBS), and the cell concentration is adjusted to 2×10⁵/100 μl. […] The mixture is then mixed with the Raji cells and incubated at 4° C. for 60 min. The cells are centrifuged at 500×g for 5 min. The cells are washed twice with PBS (2% FBS). 1:500 diluted goat anti-human IgG-Fc-Alexa Fluor 488 (Jackson) is added, and incubated at 4° C. for 60 min. The cells are washed twice with PBS (2% FBS). The cells are suspended in 200 μl PBS and analyzed by flow cytometry.

[8] = target: T2, LAG3-Fc recombinant protein; assay: ELISA blocking assay: antibody mixed with LSECtin, added to coated LAG3-Fc, bound LSECtin detected with anti-His-HRP
Method: The plate is washed 3 times with PBS containing 0.05% Tween 20 (PBST). […] The plate is washed 6 times with PBST, and TMB is added thereto for color development. The reaction is stopped with 2M H₂SO₄. The plate is read at 450 nm with a microplate reader.

[9] = target: T1, full-length human LAG3 on the cell …; assay: flow cytometry on Jurkat cells expressing full-length human LAG3, anti-mouse IgG-FITC
Method: (§2) The transfected Jurkat cells expressing the full-length human LAG3 gene are taken and washed twice with PBS (2% FBS), and the cell concentration is adjusted to 2×10⁵/100 μl. […] The cells are centrifuged at 500×g for 5 min. […] The cells are washed twice with PBS (2% FBS). […] The cells are washed twice with PBS (2% FBS). The cells are suspended in 200 μl PBS and analyzed by flow cytometry.

[10] = target: T1, full-length human LAG3 on the cell …; assay: flow cytometry on Jurkat cells expressing full-length human LAG3, anti-human IgG Fab-FITC
Method: as §2

B1: anti-LAG3 humanized antibody h6H11B10 (antibody, human IgG4 S228P)
heavy: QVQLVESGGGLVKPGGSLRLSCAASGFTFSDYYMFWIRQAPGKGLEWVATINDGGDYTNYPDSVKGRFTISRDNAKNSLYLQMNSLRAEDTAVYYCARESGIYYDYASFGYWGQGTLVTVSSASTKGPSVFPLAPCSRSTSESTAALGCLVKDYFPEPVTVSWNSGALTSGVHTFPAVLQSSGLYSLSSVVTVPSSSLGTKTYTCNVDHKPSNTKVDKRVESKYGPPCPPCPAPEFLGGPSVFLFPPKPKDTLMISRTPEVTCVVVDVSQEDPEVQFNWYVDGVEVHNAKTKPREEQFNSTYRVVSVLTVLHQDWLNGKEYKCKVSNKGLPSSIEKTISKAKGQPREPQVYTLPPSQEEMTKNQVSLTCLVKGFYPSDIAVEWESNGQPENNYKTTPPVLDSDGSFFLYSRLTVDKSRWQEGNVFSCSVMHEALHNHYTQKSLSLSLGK
light: DIVMTQSPLSLSVTPGEPASISCRSSKSLLYSNGITYLYWYLQKPGQSPQLLIYQMSNLASGVPDRFSGSGSGTDFTLKISRVEAEDVGVYYCAQNLELPWTFGGGTKLEIKRNLAAPSVFIFPPSDEQLKSGTASVVCLLNNFYPREAKVQWKVDNALQSGNSQESVTEQDSKDSTYSLSSTLTLSKADYEKHKVYACEVTHQGLSSPVTKSFNRGEC
notes: Expressed in CHO-S cells
Q: Which “EC50 (read off the curve)” value [1] does the source give for B1 here?
A: Its value is ~0.3 µg/mL.

Q: And the “EC50 (read off the curve)” value [2]?
A: Its value is ~0.3 µg/mL.

Q: Does B1 bind [3]?
A: Result: binds

B2: anti-LAG3 humanized antibody h6H11B10#40 (antibody, human IgG4 S228P)
heavy: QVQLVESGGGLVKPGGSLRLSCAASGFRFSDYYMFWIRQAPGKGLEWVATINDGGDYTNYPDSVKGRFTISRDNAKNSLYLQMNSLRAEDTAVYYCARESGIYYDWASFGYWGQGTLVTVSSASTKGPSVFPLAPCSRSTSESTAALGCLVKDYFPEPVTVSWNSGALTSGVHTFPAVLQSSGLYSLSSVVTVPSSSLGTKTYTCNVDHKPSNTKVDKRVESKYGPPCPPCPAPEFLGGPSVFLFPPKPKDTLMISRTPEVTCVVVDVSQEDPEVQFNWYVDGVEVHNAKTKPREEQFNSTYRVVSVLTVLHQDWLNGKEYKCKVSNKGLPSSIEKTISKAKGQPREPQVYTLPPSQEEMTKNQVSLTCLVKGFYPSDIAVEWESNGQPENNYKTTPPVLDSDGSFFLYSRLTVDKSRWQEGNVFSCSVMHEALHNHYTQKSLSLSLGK
light: B1 light with L30K
notes: Expressed in CHO-S cells
Q: With B2 as the binder, how does the Kd [4] read?
A: Its Kd is 1.42 nM.

Q: What about the koff [4] of the same binder?
A: Its koff is 3.09e-05 s⁻¹.

Q: What about the kon [4] of the same binder?
A: Its kon is 21700 M⁻¹ s⁻¹.

Q: And the “EC50 (read off the curve)” value [5]?
A: Its value is ~0.01 µg/mL.

Q: And the Kd [6]?
A: The Kd was 0.313 nM.

Q: What about the koff [6] of the same binder?
A: Its koff is 1.37e-05 s⁻¹.

Q: What about the kon [6] of the same binder?
A: Its kon is 43500 M⁻¹ s⁻¹.

Q: And the “IC50 (read off the curve)” value (Tag1-LAG3 protein)?
A: Its value is ~2 µg/mL.

Q: And the “EC50 (read off the curve)” value [1]?
A: Its value is ~0.4 µg/mL.

Q: What about the “EC50 (read off the curve)” value [2] of the same binder?
A: The value was ~0.2 µg/mL.

Q: And the “IC50 (read off the curve)” value [7]?
A: The value was ~0.5 µg/mL.

Q: And the “IC50 (read off the curve)” value [8]?
A: The value was ~1 µg/mL.

B3: anti-LAG3 murine antibody 6H11B10 (antibody, V domains shown)
VH: EVQVVESGGGLVKPGGSLKLSCAASGFTFSDYYMFWVRQTPEERLEWVATINDGGDYTNYPDSVKGRFTISRDNDKNKLYLQMNSLKSEDTAMYYCARESGIYYDYASFGYWGQGTLVTVSS
VL: DIVMTQAAFSNPVTLGTSASISCRSSKSLLYSNGITYLYWYLQKPGQSPQLLIYQMSNLASGVPDRFSSSGSGTDFTLRISRVEAEDVGVYYCAQNLELPWTFGGGTKLEIKRNL
notes: also called m6H11B10; monoclonal hybridoma cell line 6H11B10
Q: Does B3 bind [9]?
A: Result: binds

B4: anti-LAG3 chimeric antibody c6H11B10 (antibody, human IgG4 S228P, V domains shown)
VH: B3 VH
VL: DIVMTQAAFSNPVTLGTSASISCRSSKSLLYSNGITYLYWYLQKPGQSPQLLIYQMSNLASGVPDRFSSSGSGTDFTLRISRVEAEDVGVYYCAQNLELPWTFGGGTKLEIKR
notes: Expressed in CHO-S cells; also called chimeric antibody protein c6H11B10
Q: Does B4 bind [10]?
A: Result: binds

— patent publication US20230074657A1 (SHANGHAI HENLIUS BIOTECH, published 2023)
